Data published in the supplement of paper PMC9170038.

The sequences below were run on MS2 coat protein (assay: apparent KD of MS2 coat protein; higher = weaker reporter binding). Settings: Eterna round: R107; input ligand: arginine 13.2 mM.
In short: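 Designed RNA switches were transcribed on-chip from Illumina sequencing clusters. SNAP-549-labelled MS2 coat protein was titrated onto them in twofold steps from 0.7 or 1.5 nM to 3 µM in 100 mM Tris-HCl pH 7.5, 80 mM KCl, 4 mM MgCl2, either without or with constant ligand. Apparent KD reflects the per-design median of normalised cluster binding-curve fits.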

Compared with “AUUGACGUUGCGGCCGCCACUAGGCGUUCCCGGACAUGAGGAUCACCCAUGUGCUAGAGUGUAACUAGGACCGGGUAACCUCAGC [Verevean]”, “AAUCGUAAGGCGGCCGCCACUACACAUGAGGAUCACCCAUGUCUCGCAGGCUUGCGUUGGGAUAGUAGGACCGGGCCAGUAAUAA [Exclusion - Tryptophan B (Freestyle 14)]” is 6.7-fold lower in “apparent KD of MS2 coat protein” value: 0.124 µM for the first, 0.0185 µM for the second.

Compared with “GCGGGACUUUCGGCCGCCACUGAGAGAGUCGUGUGAACAUGAGGAUCACCCAUGUAAUAUAUAUACAGGACCGGGAGGGUUGCGC [4.Q]”, “AUGUACAUGACGGCCGCCACUACACUGAAAGUGGUCCAGAACAUGAGGAUCACCCAUGUAUCAAGUAGGACCGGGUCAUGUACAU [Tryp B Ex t5]” is 32-fold higher in “apparent KD of MS2 coat protein” value: 0.00564 µM for the first, 0.178 µM for the second.

“UGUUUGGUGCGCGAGUGUUGGAUAAUUGAUACCAGUGUAGAUGUGCGCCCUUGGCAGCGAAUCCGAACAUGAGGAUCACCCAUGU [5.Z]” and “GCUACAUGAGGAUCACCCAUGUCAGCUACACGAGGACCGGUACGGCCGCCACUCGGUAGCGCUCAUCCUCGUGUGUAAGUCAAGU [Xedier]” are within 1.5-fold of each other in “apparent KD of MS2 coat protein” value: 0.0412 µM for the first, 0.0482 µM for the second.

Going from “AACACAUGAGGAUCACCCAUGUCCAUGUACCGAGGACCGGUACGGCCGCCACUCGACAUGAGGAUCACCCAUGUUCCAUGUUGUC [Same State Tryptophan A 3]” to “AGCUCGCAUCCUCUAGCGUCAAAGACGCCUCGAGGACCGGUACGGCCGCCACUCGAUAUGAGGAUCACCCAUAUCAAAGCGAGCA [TrypAX 2 #SwitchBubble #AlternativeMS2 #MS2Late #CuTurnoff]”, the “apparent KD of MS2 coat protein” value falls from 0.076 µM to 0.0327 µM (2.3-fold).

“GCACCAGGUACGGAUACCAGAAUUUGCCAAUUGGGUGAACAUGAGGAUCACCCAUGUUAUUUCCCUUGGCAGCCGUACCUGGUGC [ETB NP+V+V2 #10]” and “UGUAUGGACUGAAGGAGCGGUUGAUAACAUGAGCAUCAGCCAUGUAAUAAGGCGAAAGCCAACCAGGUAGGUCGCAGUCCAUACU” are within 1.5-fold of each other in “apparent KD of MS2 coat protein” value: 0.00888 µM for the first, 0.00826 µM for the second.

“GGAUAGGACACGGCCGCCACUACCUAGGAUACUAGCAACAUUUGGGUACACGAGGAUCACCCGUGUAGGACCGGGUGUCCUAUCG” and “GGUUUGCGGCCUGAUACCAGUGAUGGAUGAACCCUAGUCAACAUGAGGAUCACCCAUGUUCACCCUUGGCAGCAGUGACGCUCGA [theeternabot_exclusion_MS2_Theo_B_34]” are within 1.5-fold of each other in “apparent KD of MS2 coat protein” value: 0.0326 µM for the first, 0.0432 µM for the second.

Compared with “GCCGCGGCCGCGAUACACAUGGGUGUGUAACGAGGACCGGUACGGCCGCCACUCGAGAUGGUGCACAUGAGGAUCACCCAUGUGC [Exclusion Tryp A GF15]”, “UGUAUGUGAUCUGAUACCAGCUAGCGGAAACGCAAAAGCUUGAGGAUCACCCAAGUGGAAAGCCCUUGGCAGCAGAUCGCAUACU [Denovo 1 #StaticStem #AlternativeMS2]” is 1.7-fold higher in “apparent KD of MS2 coat protein” value: 0.0103 µM for the first, 0.0175 µM for the second.

Going from “AUCGUACCUGAUGAUACCAGCAAUUGCUCGUAACAUGAGGAUCACCCAUGUGACCAGUGAUGCCCUUGGCAGCAUGGUCGGUGCA [Same State - Theophylline B (Freestyle 21)]” to “CGUAGUAUCAGACAUGAGGAUCACCCAUGUCGAGGACCGGUACGGCCGCCACUCGGCAGUUUGCGUCCUCAGGUACUCCAGGUAA [Larirexea]”, the “apparent KD of MS2 coat protein” value falls from 0.0595 µM to 0.0148 µM (4-fold).

Going from “GGGCCUAUAAGCAGGCCCACAGCGGGUGAUACCAGCAAUAAAACUUGCCCUUGGCAGCACACAGCUACAUGAGGAUCACCCAUGU [Beator]” to “UAUAUAUAUAUUGAUACCAGCAGAGAAAACGUUUAUCCUAACAUGAGGAUCACCCAUGUAUGCCCUUGGCAGCGGUAUAUAUAUA [8.D]”, the “apparent KD of MS2 coat protein” value falls from 0.0411 µM to 0.0197 µM (2.1-fold).

Going from “CAUGUUGUUGAAGAUACCAGAUUCUGAACGUUCACAUGAGGAUCACCCAUGUAAGUCCGAGUCCCUUGGCAGCUUAUACAGGUGG [Reatlala]” to “UGUAUGUGAUCUGAUACCAGAGUGACGCGAAAGCGAACCUGAGGAUCACCCUGGUAAUAACUCCCUUGGCAGCAGAUCGCAUACU”, the “apparent KD of MS2 coat protein” value rises from 0.0439 µM to 0.0731 µM (1.7-fold).

Compared with “AACAUGAGGAUCACCCAUGUGUCCUCGAAACGAGGACCGGUACGGCCGCCACUCGAAUAAGGUGUUGACGAAAAGUCAGCACCAA [Mat - Exclusion - Trytophan A - D17]”, “GCUACAUGAGGAUCACCCAUGUGUACUGAAGGAGCGGCGAAAACGCCAGGUAGGUCGCAGUAUGUGGCUCUGGGCACGAGAUGGC [#02 Same State - Arginine A]” is 4.1-fold lower in “apparent KD of MS2 coat protein” value: 0.111 µM for the first, 0.027 µM for the second.

“AGUGUUAUAACUGAUACCAGACCUUUGCUUAUACAUGAGGAUCACCCAUGUAAAAUGGCGGUCCCUUGGCAGCAGAGAAUACACA [#08 Same State - Theophylline B]” and “UCAUAUUAGUGAGAUGUAAGGUAUCAUGAUACCAGUAGAUAAUUAUACCCUUGGCAGCAUAACAUGAGGAUCACCCAUGUACAUG [Ab]” are within 1.5-fold of each other in “apparent KD of MS2 coat protein” value: 0.0302 µM for the first, 0.0231 µM for the second.

Compared with “UUUUUUAACAUGGCGUAUCGGAAAACCGAUACCAGUACAGAAAUGUACCCUUGGCAGCGGCGUUUUACAUGAGGAUCACCCAUGU [Ex Theophylline A 3]”, “ACAUGAGGAUCACCCAUGUAUGACUAUCCUCGAGGACCGGUACGGCCGCCACUCGAAGGAGUGGCUCGCGAGUGCGCACUUGCAA [5' end]” is 2.1-fold lower in “apparent KD of MS2 coat protein” value: 0.0212 µM for the first, 0.00987 µM for the second.

First: GUCUUGGAAUCGGCCGCCACUACAUGAGGAUCACCCAUGUGGACAAAUAGGGUUUUUAAGCUCGGUAGGACCGGGAUUCGGACAU [Mamaon]
Second: GUGUGGCGCUCGGCCGCCACUCAGACAUGAGGAUCACCCAUGUAGAACAUGAGGAUCACCCAUGUGAGGACCGGGAGACACACGA [Exclusion Tryptophan B GF11]
The “apparent KD of MS2 coat protein” value of the first is 13-fold lower: 0.0123 µM for the first, 0.164 µM for the second.

Going from “ACGUCUCGAAAACUCGUAGUAACAAUAGAUACCAGUAGCGAGAGUUACCCUUGGCAGCUACAUGAGGAUCACCCAUGUACGAGGA [XTheo A #27]” to “AGGACGGCCGGAAGGAGCGGUACAUGAGGAUCACCCAUGUACCUCUGGGCAUCCGUAGUGUGCCAGGUAGGUCGCCGGUUGCGGG [Veatgema]”, the “apparent KD of MS2 coat protein” value falls from 0.0191 µM to 0.0111 µM (1.7-fold).

Going from “AUUUUUCUAUCAGAUACCAGACAACUCCAAACAUGAGGAUCACCCAUGUAUUGGGUGUUCGUCCCUUGGCAGCUGUUAAUGUUAA [JR_SSTheophyB_Sub003]” to “AGCACUGUGACGGCCGCCACUAUAUUAGGGUGGUAGGGUUCAUAAAUACAUGAGGAUCACCCAUGUAGGACCGGGUCUCAGUGCA [Omei Trp Exc B A v1]”, the “apparent KD of MS2 coat protein” value falls from 0.0246 µM to 0.0116 µM (2.1-fold).

Compared with “UCGAAUGCGGCGGCCGCCACUCGCGGAUAACGAUAGCUUAACAUGAGGAUCACCCAUGUGUCAUGGAGGACCGGGCCCAUACCGU [azamullin]”, “CAAGAAGUAACUGAUACCAGUGUACUGACAUGAGGAUCACCCAUGUUGGGUUUUGUUGUACACCCUUGGCAGCAGAAUCUUCUUG [AstrosExyTheB#22]” is 2.4-fold higher in “apparent KD of MS2 coat protein” value: 0.0197 µM for the first, 0.0469 µM for the second.

Going from “UACAUGAGGAUCACCCAUGUGUAACCAGAAGGAGCGUGCGAAAGCACAGGUAGGUCGCUGGUGGGUUUAGGUUUAAUAGGUGUAU [SSAA NP+V+V2 #4 +-Same Structure]” to “UACUUGCUGACGGCCGCCACUAGAACAUGAGGAUCACCCAUGUAUCUAGUGGCAAUCCUCAUGACUAGGACCGGGUCAGCAAGAU [(Trp1)-(Ms2)-(T)'-(M)'-(Trp2)_Design1]”, the “apparent KD of MS2 coat protein” value falls from 0.0328 µM to 0.00826 µM (4-fold).

Compared with “AGCGACAUGCGUGAUACCAGCUACAUGAGGAUCACCCAUGUCAGUAGGAAACUGCUGUGUAGCCCUUGGCAGCACAGUGCAUGUC [Exclusion - Theophylline B (Freestyle 27)]”, “UCGUGUAUUUCGGAUACCAGUGAAAUCGAUACAUGAGGAUCACCCAUGUGAGAGGAUGUACACCCUUGGCAGCUGUAUAUAUCUG [fgfmullin]” is 1.9-fold lower in “apparent KD of MS2 coat protein” value: 0.036 µM for the first, 0.0187 µM for the second.

For “GAGCUCGUGGACUGGCGUGCUCCGCUCCGUCGAGGACCGGUACGGCCGCCACUCGACAUGAGGAUCACCCAUGUGCGAGCUCGCU [#1 Exclusion - Tryptophan A Attempt #22 (HarryS)]”, the “apparent KD of MS2 coat protein” value was 0.0114 µM.
